Experimental data reported in patent publication US20040009166A1.

Key:
[1] = target: Recombinant human TNF-alpha (Pierce, cat # RTNFA50) (human) (UniProt P01375); test: cell-based or functional assay
[2] = target: Recombinant human TNF-alpha (Pierce, cat # RTNFA50) (human) (UniProt P01375); test: SPR (BiaCore X), rhTNF-alpha immobilized on CM5 chip, SCA as analyte, 1:1 fit

Chain of UniProt P01375 (P01375 whole entry, form in doubt): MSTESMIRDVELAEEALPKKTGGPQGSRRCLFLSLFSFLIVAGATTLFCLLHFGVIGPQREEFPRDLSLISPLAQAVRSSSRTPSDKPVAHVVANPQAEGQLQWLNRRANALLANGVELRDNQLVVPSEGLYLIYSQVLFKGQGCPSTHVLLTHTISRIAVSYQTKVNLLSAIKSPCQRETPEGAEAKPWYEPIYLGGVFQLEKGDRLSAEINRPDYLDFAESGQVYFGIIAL

| Substance | IC50, TNF-sensitive cell rescue assay, after 5 cycles of freeze-thaw [1] | IC50, TNF-sensitive cell rescue assay, after 10 cycles of freeze-thaw [1] | IC50 values (to rescue 50% WEHI-13VAR cells from killing by 1.0 ng/ml TNF) [1] | Ka [2] | Kd [2] | koff [2] | kon [2] | IC50 Values (cell rescue of WEHI-13VAR cells from TNF-alpha) [1] |
| --- | --- | --- | --- | --- | --- | --- | --- | --- |
| 2-7-SC-2 SCA (D2E7 SCA, VL-218-VH-his6, C-terminus Cys), native (scFv) | 225 nM | 0.302 µg/mL | 3.05 nM | 8.36e+08 M⁻¹ | 1.2 nM | 0.000392 s⁻¹ | 328000 M⁻¹ s⁻¹ |  |
| 2-7-SC-3 SCA (D2E7 SCA, VH-(GGGGS)3-VL-his6, C-terminus Cys), native (scFv) |  |  |  | 1.1e+08 M⁻¹ | 9.05 nM | 0.000416 s⁻¹ | 46400 M⁻¹ s⁻¹ |  |
| 2-7-SC-4 SCA (D2E7 SCA, VL-218-VH, no his tag, C-terminus Cys), native (scFv) |  |  |  | 5.49e+08 M⁻¹ | 1.82 nM | 0.000495 s⁻¹ | 272000 M⁻¹ s⁻¹ | 7.18 nM |
| 2-7-SC-5 SCA (D2E7 SCA, VL-218-VH-his6, Cys at linker position 2), native (scFv) |  |  |  | 1.55e+10 M⁻¹ | 0.0644 nM | 1.12e-05 s⁻¹ | 173000 M⁻¹ s⁻¹ | 4.18 nM |
| 2-7-SC-7 SCA (D2E7 SCA, VH-(GGGGS)3-VL-his6, Cys at linker position 2), native (scFv) |  |  |  | 1.19e+10 M⁻¹ | 0.0843 nM | 2.96e-06 s⁻¹ | 35100 M⁻¹ s⁻¹ |  |
